# Measured values as given in paper PMC3751566.
# Numbering of substitutions follows the chain as printed.
# B1: Munc18c (endogenous) [mouse (endogenous in 3T3-L1 and PTP1B KO adipocytes)] / Protein-tyrosine phosphatase 1B substrate-trapping [not stated] (parent)
# chain 1: MAPPVSERGLKSVVWRKIKTAVFDDCRKEGEWKIMLLDEFTTKLLSSCCKMTDLLEEGITVIENIYKNREPVRQMKALYFISPTPKSVDCFLRDFGSKSEKKYKAAYIYFTDFCPDSLFNKIKASCSKSIRRCKEINISFIPQESQVYTLDVPDAFYYCYSPDPSNASRKEVVMEAMAEQIVTVCATLDENPGVRYKSKPLDNASKLAQLVEKKLEDYYKIDEKGLIKGKTQSQLLIIDRGFDPVSTVLHELTFQAMAYDLLPIENDTYKYKTDGKEKEAVLEEDDDLWVRVRHRHIAVVLEEIPKLMKEISSTKKATEGKTSLSALTQLMKKMPHFRKQISKQVVHLNLAEDCMNKFKLNIEKLCKTEQDLALGTDAEGQRVKDSMLVLLPVLLNKNHDNCDKIRAVLLYIFGINGTTEENLDRLIHNVKIEDDSDMIRNWSHLGVPIVPPSQQAKPLRKDRSAEETFQLSRWTPFIKDIMEDAIDNRLDSKEWPYCSRCPAVWNGSGAVSARQKPRTNYLELDRKNGSRLIIFVIGGITYSEMRCAYEVSQAHKSCEVIIGSTHILTPRKLLDDIKMLNKSKDKVSFKDE
# chain 2: MEMEKEFEQIDKSGSWAAIYQDIRHEASDFPCRVAKLPKNKNRNRYRDVSPFDHSRIKLHQEDNDYINASLIKMEEAQRSYILTQGPLPNTCGHFWEMVWEQKSRGVVMLNRVMEKGSLKCAQYWPQKEEKEMIFEDTNLKLTLISEDIKSYYTVRQLELENLTTQETREILHFHYTTWPAFGVPESPASFLNFLFKVRESGSLSPEHGPVVVHCSAGIGRSGTFCLADTCLLLMDKRKDPSSVDIKKVLLEMRKFRMGLIQTADQLRFSYLAVIEGAKFIMGDSSVQDQWKELSHEDLEPPPEHIPPPPRPPKRILEPHNGKCREFFPNHQWVKEETQEDKDCPIKEEKGSPLNAAPYGIESMSQDTEVRSRVVGGSLRGAQAASPAKGEPSLPEKDEDHALSYWKPFLVNMCVATVLTAGAYLCYRFLFNSNT
# B2: Protein-tyrosine phosphatase 1B wild type [not stated] / Munc18c (endogenous) [mouse (endogenous in 3T3-L1 and PTP1B KO adipocytes)] (parent)
# chain 1: B1 chain 2 with A181D
# chain 2: B1 chain 1
# Variants of: B1
# Experiment: co-immunoprecipitation (IP PTP1B with FG6, IB Munc18c), band quantification
# Conditions: with Protein-tyrosine phosphatase 1B substrate-trapping mutant D181A; Munc18c knockdown 3T3-L1 cells reconstituted with Y218/219F, transfected with PTP1B D/A, + insulin; read off a plot
row,Variant,response (relative to WT)
1,chain 1 MAPPVSERGLKSVVWRKIKTAVFDDCRKEGEWKIMLLDEFTTKLLSSCCKMTDLLEEGITVIENIYKNREPVRQMKALYFISPTPKSVDCFLRDFGSKSEKKYKAAYIYFTDFCPDSLFNKIKASCSKSIRRCKEINISFIPQESQVYTLDVPDAFYYCYSPDPSNASRKEVVMEAMAEQIVTVCATLDENPGVRYKSKPLDNASKLAQLVEKKLEDFFKIDEKGLIKGKTQSQLLIIDRGFDPVSTVLHELTFQAMAYDLLPIENDTYKYKTDGKEKEAVLEEDDDLWVRVRHRHIAVVLEEIPKLMKEISSTKKATEGKTSLSALTQLMKKMPHFRKQISKQVVHLNLAEDCMNKFKLNIEKLCKTEQDLALGTDAEGQRVKDSMLVLLPVLLNKNHDNCDKIRAVLLYIFGINGTTEENLDRLIHNVKIEDDSDMIRNWSHLGVPIVPPSQQAKPLRKDRSAEETFQLSRWTPFIKDIMEDAIDNRLDSKEWPYCSRCPAVWNGSGAVSARQKPRTNYLELDRKNGSRLIIFVIGGITYSEMRCAYEVSQAHKSCEVIIGSTHILTPRKLLDDIKMLNKSKDKVSFKDE [chain 1 Y218F Y219F],0.87

# Same assay, conditions: with Protein-tyrosine phosphatase 1B substrate-trapping mutant D181A; Munc18c knockdown 3T3-L1 cells reconstituted with Y218/219F, transfected with PTP1B D/A, - insulin; read off a plot
row,Variant,response (relative to WT)
1,chain 1 MAPPVSERGLKSVVWRKIKTAVFDDCRKEGEWKIMLLDEFTTKLLSSCCKMTDLLEEGITVIENIYKNREPVRQMKALYFISPTPKSVDCFLRDFGSKSEKKYKAAYIYFTDFCPDSLFNKIKASCSKSIRRCKEINISFIPQESQVYTLDVPDAFYYCYSPDPSNASRKEVVMEAMAEQIVTVCATLDENPGVRYKSKPLDNASKLAQLVEKKLEDFFKIDEKGLIKGKTQSQLLIIDRGFDPVSTVLHELTFQAMAYDLLPIENDTYKYKTDGKEKEAVLEEDDDLWVRVRHRHIAVVLEEIPKLMKEISSTKKATEGKTSLSALTQLMKKMPHFRKQISKQVVHLNLAEDCMNKFKLNIEKLCKTEQDLALGTDAEGQRVKDSMLVLLPVLLNKNHDNCDKIRAVLLYIFGINGTTEENLDRLIHNVKIEDDSDMIRNWSHLGVPIVPPSQQAKPLRKDRSAEETFQLSRWTPFIKDIMEDAIDNRLDSKEWPYCSRCPAVWNGSGAVSARQKPRTNYLELDRKNGSRLIIFVIGGITYSEMRCAYEVSQAHKSCEVIIGSTHILTPRKLLDDIKMLNKSKDKVSFKDE [chain 1 Y218F Y219F],0.4

# Same assay, conditions: with Protein-tyrosine phosphatase 1B substrate-trapping mutant D181A; Munc18c knockdown 3T3-L1 cells reconstituted with Y521F, transfected with PTP1B D/A, + insulin; read off a plot
row,Variant,response (relative to WT)
1,chain 1 MAPPVSERGLKSVVWRKIKTAVFDDCRKEGEWKIMLLDEFTTKLLSSCCKMTDLLEEGITVIENIYKNREPVRQMKALYFISPTPKSVDCFLRDFGSKSEKKYKAAYIYFTDFCPDSLFNKIKASCSKSIRRCKEINISFIPQESQVYTLDVPDAFYYCYSPDPSNASRKEVVMEAMAEQIVTVCATLDENPGVRYKSKPLDNASKLAQLVEKKLEDYYKIDEKGLIKGKTQSQLLIIDRGFDPVSTVLHELTFQAMAYDLLPIENDTYKYKTDGKEKEAVLEEDDDLWVRVRHRHIAVVLEEIPKLMKEISSTKKATEGKTSLSALTQLMKKMPHFRKQISKQVVHLNLAEDCMNKFKLNIEKLCKTEQDLALGTDAEGQRVKDSMLVLLPVLLNKNHDNCDKIRAVLLYIFGINGTTEENLDRLIHNVKIEDDSDMIRNWSHLGVPIVPPSQQAKPLRKDRSAEETFQLSRWTPFIKDIMEDAIDNRLDSKEWPYCSRCPAVWNGSGAVSARQKPRTNFLELDRKNGSRLIIFVIGGITYSEMRCAYEVSQAHKSCEVIIGSTHILTPRKLLDDIKMLNKSKDKVSFKDE [chain 1 Y521F],0.93

# Same assay, conditions: with Protein-tyrosine phosphatase 1B substrate-trapping mutant D181A; Munc18c knockdown 3T3-L1 cells reconstituted with Y521F, transfected with PTP1B D/A, - insulin; read off a plot
row,Variant,response (relative to WT)
1,chain 1 MAPPVSERGLKSVVWRKIKTAVFDDCRKEGEWKIMLLDEFTTKLLSSCCKMTDLLEEGITVIENIYKNREPVRQMKALYFISPTPKSVDCFLRDFGSKSEKKYKAAYIYFTDFCPDSLFNKIKASCSKSIRRCKEINISFIPQESQVYTLDVPDAFYYCYSPDPSNASRKEVVMEAMAEQIVTVCATLDENPGVRYKSKPLDNASKLAQLVEKKLEDYYKIDEKGLIKGKTQSQLLIIDRGFDPVSTVLHELTFQAMAYDLLPIENDTYKYKTDGKEKEAVLEEDDDLWVRVRHRHIAVVLEEIPKLMKEISSTKKATEGKTSLSALTQLMKKMPHFRKQISKQVVHLNLAEDCMNKFKLNIEKLCKTEQDLALGTDAEGQRVKDSMLVLLPVLLNKNHDNCDKIRAVLLYIFGINGTTEENLDRLIHNVKIEDDSDMIRNWSHLGVPIVPPSQQAKPLRKDRSAEETFQLSRWTPFIKDIMEDAIDNRLDSKEWPYCSRCPAVWNGSGAVSARQKPRTNFLELDRKNGSRLIIFVIGGITYSEMRCAYEVSQAHKSCEVIIGSTHILTPRKLLDDIKMLNKSKDKVSFKDE [chain 1 Y521F],0.38

# Variants of: B2
# Experiment: as above
# Conditions: with Munc18c (endogenous) [mouse (endogenous in 3T3-L1 and PTP1B KO adipocytes)]; 3T3-L1 WT adipocytes, + insulin + Vanadate; read off a plot
row,Variant,response (relative to WT)
1,chain 1 D181A,0.83

# Same assay, conditions: with Munc18c (endogenous) [mouse (endogenous in 3T3-L1 and PTP1B KO adipocytes)]; 3T3-L1 WT adipocytes, + insulin, NP40 lysis; read off a plot
row,Variant,response (relative to WT)
1,chain 1 D181A,2.2

# Same assay, conditions: with Munc18c (endogenous) [mouse (endogenous in 3T3-L1 and PTP1B KO adipocytes)]; 3T3-L1 WT adipocytes, - insulin, NP40 lysis; read off a plot
row,Variant,response (relative to WT)
1,chain 1 D181A,1.4
